From patent US20230192842A1 (published 2023)
Positions count from the first letter of the chain named.

Tests used:
Experiment in all cases: cell-based or functional assay
[1] = target: human CLDN4 with C-terminal monomeric GFP tag on RKO-KO cells (human) (UniProt O14493)
[2] = target: human CLDN3 I45A mutant on RKO KO cells (human) (UniProt O15551)
[3] = target: human CLDN3 S42A mutant on RKO KO cells (human) (UniProt O15551)
[4] = target: human CLDN3 with C-terminal monomeric GFP tag on RKO-KO cells (human) (UniProt O15551)
[5] = target: human CLDN3 V150A mutant on RKO KO cells (human) (UniProt O15551)
[6] = target: human CLDN3 P149A mutant on RKO KO cells (human) (UniProt O15551)
[7] = target: human CLDN3 R157A mutant on RKO KO cells (human) (UniProt O15551)
[8] = target: human CLDN3 Q43A mutant on RKO KO cells (human) (UniProt O15551)
[9] = target: human CLDN9 with C-terminal monomeric GFP tag on RKO-KO cells (human) (UniProt O95484)
[10] = target: T1, human CLDN3 N38A mutant on RKO KO cells (human, UniProt O15551 1-220)
T1 construct: Single-point alanine mutant, monoclonal RKO KO line with GFP
T1 chain: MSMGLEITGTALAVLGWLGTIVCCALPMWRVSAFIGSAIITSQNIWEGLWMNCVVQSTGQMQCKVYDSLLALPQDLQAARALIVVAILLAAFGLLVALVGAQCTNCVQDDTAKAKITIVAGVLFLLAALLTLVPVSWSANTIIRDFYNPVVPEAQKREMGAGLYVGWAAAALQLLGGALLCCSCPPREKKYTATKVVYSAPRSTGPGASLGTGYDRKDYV

[11] = target: human CLDN3 I39A mutant on RKO KO cells (human) (UniProt O15551)
[12] = target: T2, human CLDN6 with C-terminal monomeric GFP tag on RKO-KO cells (human) (UniProt P56747)
T2 sequence (looked up): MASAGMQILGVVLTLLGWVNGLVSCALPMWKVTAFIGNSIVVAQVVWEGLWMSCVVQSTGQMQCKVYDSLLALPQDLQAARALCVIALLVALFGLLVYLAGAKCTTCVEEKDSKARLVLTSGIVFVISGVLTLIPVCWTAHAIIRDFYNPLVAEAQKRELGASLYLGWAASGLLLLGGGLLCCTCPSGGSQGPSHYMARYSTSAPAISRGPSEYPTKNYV

[13] = target: human CLDN3 P152A mutant on RKO KO cells (human) (UniProt O15551)
[14] = target: human CLDN3 F34A mutant on RKO KO cells (human) (UniProt O15551)
[15] = target: human CLDN3 K156A mutant on RKO KO cells (human) (UniProt O15551)
[16] = target: human CLDN3 Q155A mutant on RKO KO cells (human) (UniProt O15551)
[17] = target: T3, human CLDN3 E153A mutant on RKO KO cells (human, UniProt O15551 1-220)
T3 construct: Single-point alanine mutant, monoclonal RKO KO line with GFP
T3 chain: T1 chain with A38N, E153A

[18] = target: human CLDN3 N148A mutant on RKO KO cells (human) (UniProt O15551)
[19] = target: mouse CLDN3 with C-terminal monomeric GFP tag on RKO-KO cells (mouse) (UniProt Q9Z0G9)
Sequence of mouse CLDN3 with C-terminal monomeric GFP tag on RKO-KO cells (mouse) (Q9Z0G9 whole entry): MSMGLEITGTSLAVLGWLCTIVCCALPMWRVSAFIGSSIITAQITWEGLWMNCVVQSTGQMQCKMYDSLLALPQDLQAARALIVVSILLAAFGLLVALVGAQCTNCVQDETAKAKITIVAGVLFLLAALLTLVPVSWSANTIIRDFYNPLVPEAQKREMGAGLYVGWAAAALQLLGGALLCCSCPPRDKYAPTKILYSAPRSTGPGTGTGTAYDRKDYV

Sequence of human CLDN9 with C-terminal monomeric GFP tag on RKO-KO cells (human) (O95484 whole entry): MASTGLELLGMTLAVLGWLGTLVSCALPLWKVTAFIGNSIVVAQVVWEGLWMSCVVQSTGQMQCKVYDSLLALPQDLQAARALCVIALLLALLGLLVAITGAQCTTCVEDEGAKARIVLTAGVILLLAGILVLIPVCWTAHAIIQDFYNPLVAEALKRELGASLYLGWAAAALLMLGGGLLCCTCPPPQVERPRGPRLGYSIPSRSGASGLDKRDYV

% Live Cells at Assay Endpoint (90 hrs, donor 0372470) [1]: 94.7%
% Live Cells at Assay Endpoint (120 hrs, donor 0372470) [1]: 90.7%
IFNγ secretion fold change, anti-claudin-3 CAR-T cells vs anti-CD19 CAR-T cells [1]: 25.1 fold
IFNγ secretion fold change, anti-claudin-3 CAR-T cells vs untransduced T cells [1]: 29.2 fold
IFNγ as % of IFNγ in CLDN3 WT (24 h co-culture, normalised to untransduced T cells) [2]: 66.1%
IFNγ as % of IFNγ in CLDN3 WT (24 h co-culture, normalised to untransduced T cells) [3]: 95.2%
% Live Cells at Assay Endpoint (40 hrs, donor 92024) [4]: 16.3%
% Live Cells at Assay Endpoint (70 hrs, donor D5) [4]: 0%
% Live Cells at Assay Endpoint (90 hrs, donor 0372470; RKO KO hCLDN3 L14) [4]: -6%
% Live Cells at Assay Endpoint (96 hrs, donor C1700979; RKO KO hCLDN3 L14) [4]: 29%
% Live Cells at Assay Endpoint (96 hrs, donor C1700980; RKO KO hCLDN3 L14) [4]: 57.3%
% Live Cells at Assay Endpoint (120 hrs, donor 0372470) [4]: 20.3%
IFNγ secretion fold change, anti-claudin-3 CAR-T cells vs anti-CD19 CAR-T cells [4]: 2500 fold
IFNγ secretion fold change, anti-claudin-3 CAR-T cells vs untransduced T cells [4]: 1350 fold
IFNγ as % of IFNγ in CLDN3 WT (24 h co-culture, normalised to untransduced T cells) [5]: 91.3%
IFNγ as % of IFNγ in CLDN3 WT (24 h co-culture, normalised to untransduced T cells) [6]: 95.5%
IFNγ as % of IFNγ in CLDN3 WT (24 h co-culture, normalised to untransduced T cells) [7]: 107%
IFNγ as % of IFNγ in CLDN3 WT (24 h co-culture, normalised to untransduced T cells) [8]: 72.8%
% Live Cells at Assay Endpoint (40 hrs, donor 92024) [9]: 96.7%
% Live Cells at Assay Endpoint (70 hrs, donor D5) [9]: 96.3%
% Live Cells at Assay Endpoint (96 hrs, donor C1700979) [9]: 92.7%
% Live Cells at Assay Endpoint (96 hrs, donor C1700980) [9]: 101%
IFNγ secretion fold change, anti-claudin-3 CAR-T cells vs anti-CD19 CAR-T cells [9]: 14.3 fold
IFNγ secretion fold change, anti-claudin-3 CAR-T cells vs untransduced T cells [9]: 11.3 fold
IFNγ as % of IFNγ in CLDN3 WT (24 h co-culture, normalised to untransduced T cells) [10]: 0.11%
IFNγ as % of IFNγ in CLDN3 WT (24 h co-culture, normalised to untransduced T cells) [11]: 71.5%
% Live Cells at Assay Endpoint (40 hrs, donor 92024) [12]: 96.3%
% Live Cells at Assay Endpoint (96 hrs, donor C1700979) [12]: 96%
% Live Cells at Assay Endpoint (96 hrs, donor C1700980) [12]: 100%
IFNγ secretion fold change, anti-claudin-3 CAR-T cells vs anti-CD19 CAR-T cells [12]: 10.9 fold
IFNγ secretion fold change, anti-claudin-3 CAR-T cells vs untransduced T cells [12]: 2.59 fold
IFNγ as % of IFNγ in CLDN3 WT (24 h co-culture, normalised to untransduced T cells) [13]: 61.6%
IFNγ as % of IFNγ in CLDN3 WT (24 h co-culture, normalised to untransduced T cells) [14]: 79.7%
IFNγ as % of IFNγ in CLDN3 WT (24 h co-culture, normalised to untransduced T cells) [15]: 101%
IFNγ as % of IFNγ in CLDN3 WT (24 h co-culture, normalised to untransduced T cells) [16]: 86.3%
IFNγ as % of IFNγ in CLDN3 WT (24 h co-culture, normalised to untransduced T cells) [17]: 3.56%
IFNγ as % of IFNγ in CLDN3 WT (24 h co-culture, normalised to untransduced T cells) [18]: 104%
% Live Cells at Assay Endpoint (40 hrs, donor 92024) [19]: 89%
% Live Cells at Assay Endpoint (70 hrs, donor D5) [19]: 97.7%
% Live Cells at Assay Endpoint (90 hrs, donor 0372470) [19]: 94.5%
% Live Cells at Assay Endpoint (96 hrs, donor C1700979) [19]: 71%
% Live Cells at Assay Endpoint (96 hrs, donor C1700980) [19]: 86%
% Live Cells at Assay Endpoint (120 hrs, donor 0372470) [19]: 81.7%
IFNγ secretion fold change, anti-claudin-3 CAR-T cells vs anti-CD19 CAR-T cells [19]: 439 fold
IFNγ secretion fold change, anti-claudin-3 CAR-T cells vs untransduced T cells [19]: 521 fold
B1: 906-009_LNGFR anti-claudin-3 chimeric antigen receptor (scFv orientation L-H, short hCD8 spacer), on T cells (protein, part only; not given: linker, spacer and signaling domains, not shown: large carriers)
chain, part: DIQMTQSPSSLSASVGDRVTITCKASQDINRYIAWYQQKPGKAPKLLIHYTSTLQPGVPSRFSGSGSGTDFTLTISSLQPEDFATYYCLQYETLYSFGQGTKLEIKQVQLVQSGAEVKKPGSSVKVSCKASGYTFTNYWVHWVRQAPGQGLEWMGRIEPNSSGSQYNEKFKNRVTITADKSTSTAYMELSSLRSEDTAVYYCARGVMVPLDYWGQGTLVTVSS
